Values quoted from earlier work as cited in patent US12370207B2, “Low-intensity treatment of hematological disorders” (Celator Pharmaceuticals, Inc., priority 2018, dated 2025).

Experiments:
[1] = tested on: hematological malignancies; settings: single agent, ISICT patients
[2] = population mean

Row | Molecule | median overall survival [1] | response rates [1] | Fi, bioavailability of first-order absorption process [2] | CL, clearance ([2]; coefficient of equation (WTKG/70)^0.641)
1 | Nc1ccn([C@@H]2O[C@H](CO)[C@@H](O)[C@@H]2O)c(=O)n1 [LDAC] | 7-10 months | less than 20% |  | 
2 | Pegfilgrastim: exogenous (recombinant) GCSF agent (protein, UniProt P09919 31-207, looked up, PEGylated, N-terminal Met (pegfilgrastim), exogenous (recombinant) GCSF agent) Granulocyte …: TPLGPASSLPQSFLLKCLEQVRKIQGDGAALQEKLVSECATYKLCHPEELVLLGHSLGIPWAPLSSCPSQALQLAGCLSQLHSGLFLYQGLLQALEGISPELGPTLDTLQLDVADFATTIWQQMEELGMAPALQPTQGAMPAFASAFQRRAGGVLVASHLQSFLEVSYRVLRHLAQP |  |  | 0.646 | 0.362 · (WTKG/70)^0.641 L/h
3 | Filgrastim: exogenous (recombinant) GCSF agent (protein, UniProt P09919 31-207, looked up, N-terminal Met (filgrastim), exogenous (recombinant) GCSF agent) Granulocyte …: TPLGPASSLPQSFLLKCLEQVRKIQGDGAALQEKLVSECATYKLCHPEELVLLGHSLGIPWAPLSSCPSQALQLAGCLSQLHSGLFLYQGLLQALEGISPELGPTLDTLQLDVADFATTIWQQMEELGMAPALQPTQGAMPAFASAFQRRAGGVLVASHLQSFLEVSYRVLRHLAQP |  |  | 0.105 | 
